Data: patent publication US20190185532A1 (UNIVERSITY OF BIRMINGHAM, published 2019)

Legend:
[1] = target: T1, CLEC14A^C138S (GFP tag, expressed in HEK293T) (human, UniProt Q86T13 22-490); test: flow cytometry on transfected HEK293T cells
T1 construct: not shown: C-terminal GFP tag from vector pEGFP-N1
T1 sequence: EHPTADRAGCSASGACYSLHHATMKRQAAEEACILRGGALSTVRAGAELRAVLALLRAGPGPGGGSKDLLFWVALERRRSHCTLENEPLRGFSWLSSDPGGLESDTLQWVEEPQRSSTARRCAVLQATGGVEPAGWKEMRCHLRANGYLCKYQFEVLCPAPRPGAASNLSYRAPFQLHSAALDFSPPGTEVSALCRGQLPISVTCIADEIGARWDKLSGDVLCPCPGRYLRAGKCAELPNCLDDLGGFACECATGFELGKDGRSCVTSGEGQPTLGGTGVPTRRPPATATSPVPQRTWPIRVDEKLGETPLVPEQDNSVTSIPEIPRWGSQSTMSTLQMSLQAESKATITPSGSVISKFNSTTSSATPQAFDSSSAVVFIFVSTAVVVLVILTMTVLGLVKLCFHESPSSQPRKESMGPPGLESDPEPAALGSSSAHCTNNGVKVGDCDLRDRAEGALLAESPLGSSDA

[2] = target: T2, MMRN2 (endogenous, HUVEC) (human, UniProt Q9H8L6 23-949); test: flow cytometry on HUVEC
T2 construct: Endogenous protein in HUVEC lysates (co-immunoprecipitation); also called multimerin-2
T2 sequence (looked up): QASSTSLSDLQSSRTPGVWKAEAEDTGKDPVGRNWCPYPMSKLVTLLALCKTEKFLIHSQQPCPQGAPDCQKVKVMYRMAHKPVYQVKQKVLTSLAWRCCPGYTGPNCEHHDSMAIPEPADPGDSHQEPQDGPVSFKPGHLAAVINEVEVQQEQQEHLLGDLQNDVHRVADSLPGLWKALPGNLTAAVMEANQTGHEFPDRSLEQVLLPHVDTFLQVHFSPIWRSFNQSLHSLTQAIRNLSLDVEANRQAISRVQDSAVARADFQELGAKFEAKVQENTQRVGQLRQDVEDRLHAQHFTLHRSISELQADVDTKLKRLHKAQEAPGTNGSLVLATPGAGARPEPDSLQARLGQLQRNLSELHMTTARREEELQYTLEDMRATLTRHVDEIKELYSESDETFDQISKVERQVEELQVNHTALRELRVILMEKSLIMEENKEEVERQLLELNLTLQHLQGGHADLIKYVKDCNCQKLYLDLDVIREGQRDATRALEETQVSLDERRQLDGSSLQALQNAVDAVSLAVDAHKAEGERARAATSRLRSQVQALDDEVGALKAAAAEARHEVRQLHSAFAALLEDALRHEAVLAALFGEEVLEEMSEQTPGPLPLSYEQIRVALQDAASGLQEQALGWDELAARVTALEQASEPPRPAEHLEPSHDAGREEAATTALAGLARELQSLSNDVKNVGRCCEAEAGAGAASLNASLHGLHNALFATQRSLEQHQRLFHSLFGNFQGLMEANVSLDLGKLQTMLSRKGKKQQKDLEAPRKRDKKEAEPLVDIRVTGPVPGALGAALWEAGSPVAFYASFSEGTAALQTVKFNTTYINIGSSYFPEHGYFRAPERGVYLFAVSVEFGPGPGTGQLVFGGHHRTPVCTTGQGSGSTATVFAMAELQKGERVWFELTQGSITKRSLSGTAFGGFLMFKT
Procedure: FIG. 3. A distinct region of MMRN2 binds CLEC14A in the C-type lectin domain. (A) CLEC14A-ECD-Fc was used to pull down MMRN2^FL from HEK293T transfected lysates. hCLEC14A-ECD-Fc was pre-incubated with either PBS, mouse control IgG, or C1-5. […] (B) Flow cytometry analysis of CLEC14A-ECD-Fc binding to HUVEC surface. CLEC14A-ECD-Fc was pre-incubated with same conditions as in pull downs. […] Mann-Whitney test *p<0.05 n=4 error bars represent standard error mean (SEM). (C) HEK293T transfected with CLEC14A domain deletions were lysed and far western blotted with MMRN2^FL under non-reduced conditions. Upon detection of the MMRN2^FL His tag, MMRN2 binding is observed in all mutants except those lacking the CTLD or sushi domains. CLEC14A blot was included to show expression of each mutant protein. (D) Flow cytometry analysis of HEK293T transfected with chimera 1 CLEC14A^{THBD(CTLD)} or chimera 2 CLEC14A^{THBD(sushi)}. […]
HUVEC or transfected HEK293T cells were detached from tissue culture plates using cell dissociation buffer or scraped and 5×10⁵ cells were stained with 20 ug/mL of antibody of interest or 20 μg/mL of recombinant protein. […] Samples were analysed on a FACSCalibur machine (BD Biosciences). […] Isotype control staining or human Fc alone was used as background fluorescence and this was subtracted from the geometric mean fluorescence intensity of each sample. […]

B1: biotinylated MMRN2^495-674 (human, expressed in E. coli with a His tag and a BirA tag) (ligand)
chain: QKLYLDLDVIREGQRDATRALEETQVSLDERRQLDGSSLQALQNAVDAVSLAVDAHKAEGERARAATSRLRSQVQALDDEVGALKAAAAEARHEVRQLHSAFAALLEDALRHEAVLAALFGEEVLEEMSEQTPGPLPLSYEQIRVALQDAASGLQEQALGWDELAARVTALEQASEPPRP
modifications: biotin on the BirA tag
notes: Used for staining of transfected HEK293T cells in flow cytometry, detected with streptavidin-PE; not shown: BirA tag and His tag (vector pET23a)
B1: no binding (tested: 20 µg/mL) [1].

B2: CLEC14A-ECD-Fc (human CLEC14A extracellular domain fused to an Fc tag) (Fc fusion)
chain: EHPTADRAGCSASGACYSLHHATMKRQAAEEACILRGGALSTVRAGAELRAVLALLRAGPGPGGGSKDLLFWVALERRRSHCTLENEPLRGFSWLSSDPGGLESDTLQWVEEPQRSCTARRCAVLQATGGVEPAGWKEMRCHLRANGYLCKYQFEVLCPAPRPGAASNLSYRAPFQLHSAALDFSPPGTEVSALCRGQLPISVTCIADEIGARWDKLSGDVLCPCPGRYLRAGKCAELPNCLDDLGGFACECATGFELGKDGRSCVTSGEGQPTLGGTGVPTRRPPATATSPVPQRTWPIRVDEKLGETPLVPEQDNSVTSIPEIPRWGSQSTMSTLQMSLQAESKATITPSGSVISKFNSTTSSATPQAFDSSS
notes: Expressed in HEK293T cells; also called hCLEC14A-ECD-Fc; C14A-Fc; not shown: human IgG Fc tag
B2: binds [2].
